Experimental findings from patent publication US8697369B2, “Method for screening a test substance for activating a receptor associated with FGF 21 activity” (National Institute of Advanced Industrial Science and …, priority 2007, dated 2014) are described below.

The target of this experiment is T1, BaF3 cells that had co-expressed FGFR1c and Klotho (Mus musculus, UniProt O35082+P16092).
T1 construct: the entire-length cDNA of mouse FGFR1c had been cloned; expressed in transfected cells; host or cells: BaF3 (mouse pro-B) cells
T1 sequence (P16092 22-822): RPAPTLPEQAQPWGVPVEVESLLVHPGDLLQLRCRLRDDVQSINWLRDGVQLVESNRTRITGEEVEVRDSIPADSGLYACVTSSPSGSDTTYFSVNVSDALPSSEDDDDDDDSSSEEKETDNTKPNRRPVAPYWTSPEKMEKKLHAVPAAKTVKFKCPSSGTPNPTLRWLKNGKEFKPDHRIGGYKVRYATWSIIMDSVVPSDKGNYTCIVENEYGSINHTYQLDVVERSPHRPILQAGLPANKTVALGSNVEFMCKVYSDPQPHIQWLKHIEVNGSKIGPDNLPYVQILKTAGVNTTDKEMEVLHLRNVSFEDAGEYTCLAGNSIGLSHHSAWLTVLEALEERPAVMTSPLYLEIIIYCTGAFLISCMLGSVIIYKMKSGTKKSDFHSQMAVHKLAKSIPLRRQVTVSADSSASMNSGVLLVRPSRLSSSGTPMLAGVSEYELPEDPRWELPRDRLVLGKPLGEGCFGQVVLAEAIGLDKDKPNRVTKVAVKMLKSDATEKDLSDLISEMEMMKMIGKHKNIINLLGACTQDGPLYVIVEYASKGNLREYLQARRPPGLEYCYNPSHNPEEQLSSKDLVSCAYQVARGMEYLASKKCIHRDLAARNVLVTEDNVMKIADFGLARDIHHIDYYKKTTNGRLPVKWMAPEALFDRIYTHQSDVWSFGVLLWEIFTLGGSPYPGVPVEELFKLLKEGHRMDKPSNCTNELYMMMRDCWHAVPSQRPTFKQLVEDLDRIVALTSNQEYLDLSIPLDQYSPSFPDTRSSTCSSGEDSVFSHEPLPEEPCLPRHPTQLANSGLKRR
T1 sequence (O35082 35-1014): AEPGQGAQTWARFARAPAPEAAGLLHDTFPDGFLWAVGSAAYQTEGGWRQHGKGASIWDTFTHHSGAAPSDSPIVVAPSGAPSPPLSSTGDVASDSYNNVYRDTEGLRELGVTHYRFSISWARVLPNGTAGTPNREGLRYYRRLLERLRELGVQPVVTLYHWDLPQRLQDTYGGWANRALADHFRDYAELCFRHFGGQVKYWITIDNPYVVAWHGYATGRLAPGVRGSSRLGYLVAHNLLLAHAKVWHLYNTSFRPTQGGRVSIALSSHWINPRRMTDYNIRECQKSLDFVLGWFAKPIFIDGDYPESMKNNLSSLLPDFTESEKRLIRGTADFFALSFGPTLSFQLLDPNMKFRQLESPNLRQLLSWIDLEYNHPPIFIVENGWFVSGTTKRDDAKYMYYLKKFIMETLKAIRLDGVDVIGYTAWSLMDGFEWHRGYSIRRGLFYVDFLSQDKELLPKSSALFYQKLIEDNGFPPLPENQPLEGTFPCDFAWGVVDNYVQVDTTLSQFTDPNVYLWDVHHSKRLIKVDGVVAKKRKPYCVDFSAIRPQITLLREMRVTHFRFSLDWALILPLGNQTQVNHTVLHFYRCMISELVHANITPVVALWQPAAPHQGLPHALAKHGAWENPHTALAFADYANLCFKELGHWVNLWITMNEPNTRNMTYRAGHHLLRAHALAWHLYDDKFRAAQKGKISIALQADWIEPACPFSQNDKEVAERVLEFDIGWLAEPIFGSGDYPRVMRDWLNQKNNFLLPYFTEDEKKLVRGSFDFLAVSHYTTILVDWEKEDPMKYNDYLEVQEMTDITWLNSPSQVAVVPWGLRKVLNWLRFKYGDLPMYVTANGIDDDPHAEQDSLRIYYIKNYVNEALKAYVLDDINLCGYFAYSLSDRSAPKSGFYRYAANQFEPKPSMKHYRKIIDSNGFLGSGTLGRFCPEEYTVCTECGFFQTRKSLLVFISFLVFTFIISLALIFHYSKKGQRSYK
Kind of experiment: DNA synthesis in BaF3 cells co-expressing FGFR1c and Klotho. It counts as cell-based. Particulars: presence or absence of heparin. As for the experimental part: Specifically, BaF3 cell that had co-expressed FGFR1c and betaKlotho and BaF3 cells that had co-expressed FGFR1c and Klotho were prepared by the same transformation method and under the same culture conditions as those applied in Example 4. Thereafter, FGF21 and FGF23 were added to both types of transformed cells in the presence or absence of heparin, and the amount of DNA synthesized was then measured.

B1: FGF21: fibroblast growth factor 21; mouse-derived protein used in Examples 1-7 and 10-13 (protein)
chain: AYPIPDSSPLLQFGGQVRQRYLYTDDDQDTEAHLEIREDGTVVGAAHRSPESLLELKALKPGVIQILGVKASRFLCQQPDGALYGSPHFDPEACSFRELLLEDGYNVYQSEAHGLPLRLPQKDSPNQDATSWGPVRFLPMPGLLHEPQDQAGFLPPEPPDVGSSDPLSMVEPLQGRSPSYAS
Turning to B1, the “amount of DNA synthesized” value is “did not react with FGFR1c”.
